# From the DeepSol protein solubility set
# Assay: soluble on expression in E. coli; label from the status in PepcDB or PDB records
row,Sequence,soluble on expression in E. coli
1,MAHHHHHHMADQNPDLKVEEALKGADIKLLLIDFDGTLFVDKDIKVPSENIDAIKEAIEKGYMVSICTGRSKVGILSAFGEENLKKMNFYGMPGVYINGTIVYDQIGYTLLDETIETDVYAELISYLVEKNLVNQTIFHRGESNYVTEDNKYADFLQKMYSENRSIIIRHNEMLKYRTMNKLMIVLDPSESKTVIGNLKQKFKNKLTIFTTYNGHAEVTKLGHDKYTGINYLLKHYNISNDQVLVVGDAENDIAMLSNFKYSFAVANATDSAKSHAKCVLPVSHREGAVAYLLKKVFDLKK,soluble
2,MAHHHHHHMADVDEWRGASFKQEEDHSEATTSLLEKINATTIPVLLRSTNKSLQDLVDELLTLEKIARLGGDALSTQRLAVEVIRVYRVQGDYAKMLLVLEMLMRKRGQTKMTQSAMIAECAVMISDASLPKESRREVLERVVHLTDSRIHVELEHARFAIDLAKLMESEGQKRAACDLLSGLHVETITNMPRAEKLDALNCLIRLCLELEDYEHTPLVSRRINHRALARAESREAKLTYFELMRHYYTQRKSYFNVARCWYETYLTETEEGAKLAALSSMAVHYLIAEHATPKALEDLAECTAFSPATYFAERNAAIQGITTKLQKQLEDIPQLQYLLQRFTSIELIREKVAREVETLCANHPQLAGHEDRQLLLRSRCSEHDLLVVSRFYRRLRLDRLAQLVGLTPEHTEEFLMMMVASKTLYAKMDRVDGLVVFEAKKNATEVINGWNEAVERSVALLDKASHLIVKERMLHNISAARAQQAVTL,not soluble
3,MAHHHHHHMAERSSTLVINEAKTKNRLSDSLRSPTDRTREHLISHRNFSSVLESAADCTSASSTPDLQEEEDVQHKRALDLFSATPHSGEFSPLIEWLLRRGERGDVGAPTASQKDGDEYTQASFFNEDYIMNLCAAATAVLGKEPALLDLEVVAHDTLVVVGDIHGQFQDLYTSVLCQQYDRRRCNPEGRDCRFLFMGDYVDRGPHSLEVVLLLLALKVEYPTLVYLTRGNHEEEKTSRVYGFLTEATSSLGAAAGTAVWSAVNKVFLDLPLAAIVQTLYMRFFVTHGGLSPGLQNVEVICALERHNYSCGNITAAEDDLIAGLLWSDPTNEVAMYKRNPRGCGFLFGPSASNRFCADNNFDFICRAHQVAMEGYMWTHNDRVLTVFSAPNYCGVNRNKGAVLLIKGYSRRPIVQQYDSAEKSEAAPARKTDFAFADMFA,not soluble
4,MAHHHHHHMAKLSKQQKKQMYIEKLSSLIQQYSKILIVHVDNVGSNQMASVRKSLRGKATILMGKNTRIRTALKKNLQAVPQIEKLLPLVKLNMGFVFCKDDLSEIRNIILDNKSPAPARLGVIAPIDVFIPPGPTGMDPSHTSFFQSLGISTKIVKGQIEIQEHVHLIKQGEKVTASSATLLQKFNMKPFSYGVDVRTVYDDGVIYDAKVLDITDEDILEKFSKGVSNVAALSRATGVITEASYPHVFVEAFKNIVALIIDSDYTFPLMENIKKMVENPEAFAAVAAPASAAKADEPKKEEAKKVEEEEEEEEDGFMGFGMFD,not soluble
5,MAHHHHHHMAPPQTTLSLDANLRNTLRSLLIERLCSPTQPLPAKQLYDELTNRSRLVEEFHFSKTSRRITRQRLALQFLRRYNVLLHGLFFYSEGTRTWNTTTEFHRLAILGESVLLTEVRTRLLKLFPVMPYAAYVQSLPHMVGEEALAAAFDRYEMQNIVGAKPSNQRSGTPLTRMQKSHMLCAIVAEMYWFTARTKPTDLTHNNALFPPSDVLILHVLSTHLLENLPAELIYNVVEPIVADIKRVWVNEPMSLPSQLRLTPRTVGALSLNAVPVDLRYTAKEDAVMSLQKKHEEAHRRQHALTREPDHSCVKSFMRPSCNYRIFDGPRYQILSSDNRVAPLPLAQERSSLPASAVCTVVDDADSAARAMELAKMAEQW,not soluble
6,MAHHHHHHMARRLQQAWRAFAARRERRYRAAAVAQCARKRLEREEVWQLVWQDQFTELDMLCMLERQYIEEQQHVKRVRLYKYLCDPNGATNDDCGTQTPGAFNADADLLKWATLYDE,not soluble
7,MAHHHHHHMASADVVSTWVCPICMVSNETQGEFTKDTLPTPICINCGVPADYELTKSSINCSNAIDPNANPRNQFG,soluble
8,MAHHHHHHMASAEAEVAADMSAMWRYAEEARAGSSALSDLTYAERQAMLRAVAKALQTNEARILEANREDMVAAKANATADPLLRRLELTPSKLATLIEGISTLADMPDPIGQILSARELDNNLLLLKQTAPIGVVLVVFESRPESLPQIASLALCSGNGLLLKGGREGEHSNAVLHDLIVSAVESSTQGRVPRGVIGLVTNRADVYSLLQLDAHIDLVVPRGSNAMVQNIQRSTRIPVLGHADGICHVYVHKDADVDAALAVAIDAKLNYPAACNAAETLLLHRDLLHSPAHGTTAAQFLVNGMTEAGVSFYAGPQAIAAGLASELAASLHMEYGDAHMTVEVVDDLAAAIAHVNRHGSHHTDTILTVDKAAAAEFQRRVESACVFHNCSTRFADGFRFGLGAEVGISTARIHARGPVGVEGLLTQKWVLKPMGSLPQATEDGAAAAAANAPYATVAEFQKGQRVFTHKDVTRKLQDEAAGLRLQA,not soluble
9,MAHHHHHHMASMNHPDELEGSATSGVLCPLTAYEEVPPTKTRSQIIKEQLLDLENYSFEIPDRPEGDPSGKLAYLDMCEQLHKESFMKFPTHSVANSLCEGKESLDVSFFALGKKGSAALAAALRVNLTIRKLSLLRNHITPSGAMEIARALSETKVVSDLDLSENLLGLTDADDIQGGAVVAEFLKPGNVLKTLSLRDNKLSDQHVTEFAEAAIDNTELHSLDLSFNRIGYIGAIELANILSKNADLQEINLEWNQFQTIGSRHILAEGLLLNNTIKRFNMSWNGLDDACGVLVGRIISENDIEEIVVAHNRIGPAGAEAIAKGLLNTSALTTLILDDNPMQNEGCAAILRVVGEAATLTNVSLQQCRCDSSVVLEADRVMKEVRPDLDIRISEGCCAKVVM,not soluble
10,MAHHHHHHMATASPSLSSNCFIDAATYFESRRGRRTFPERNASQILLGDASANSPIEEEEGLVRRQAQASAPVAWQQQQQQRHQQMRPTRRPRGPGIAFAARIEASGFPAAASRRSACADVVPECLYQYDTSELRTHKRPAQMPNRVKQCDRNLQLFLRPEEQVVRSAAAAVMLGESRDGQLSYSRYPSSQAHEHSKDPRMTADAIEASSSPFSDSAPHDQAMMTDRRSCLPYAPAAELDDSLLLKESLSSDRLRLLEHLYQRERSRLRGASRSVERDVGAVAEEDARAWHGQAPVSSLPWGTTVLPFRHGDSADVAANLPSLRRRAERSSVRRDDGDGAVHAHPLQGRDWQPWERKYACEAHPVTPRTRSSFHASSQIADSNERSDNDNDRNGGVDYTHAKSFGNATCSANWRCASASHRRRVTGSYDDFSDSTEARNEPPKHTTRIGSRMAMADAAPRVPHISAWFAPLRNDRVARQAHHTRSADHARASHSLRGEKERQAGQLQRHISAASPSVQGSSSSTAAGARPVETSPAASARTQATVTLSDVCTHQPLRAPSLQQRQHGKLAGSAASSPLFPTSSARVQGRDDAALTLRDVCGALNTAAVVM,not soluble
11,MAHHHHHHMATISRRDGRTAREMRGKELRTSDLSQFDGSAWYSQGLTAVTVAINGPTAARQENYRRCTTCIHVNRAARIPQEGGTGRLIMMERRERERCEDGELKQFLTSLVEAIVCLDRFPRCVLEAHVTVLMDDGALFAVASNAIMCALLDAGVPCRSTIAAVSLIMCNPEASGNEGEPEIFLDPTAVEESTDEVRSYASATFVLTNTGGEAVLASRVQARPRSSAYSRPITPKDLSRMFALAAKAAETLFVFFRNCSMALE,not soluble
12,MAHHHHHHMAYVFDKITKTVTIYMGNTKSKIVLGGLWQRGMKGYIIYDVARQGTPPDTNFAPTTGWSMILVSSPNVRNYDGWATQVKASRIIMNCPDEMDVKAMCAWMKRGLDTDKQAGYWKMVEKHMEKVGPIPRHIFDADEYGERTWDATSALRWINIGEQRKYFTKGGEQWYSEDLSHKLLKIVRVREDGAFEDLSNAPICDYLGVLTVSRLAKALSPNDILFLVLGMKNVVQSAALKKYGLNVFLSVEFVTSIVTDLKELQPPSPSEPRSSVLTLNPHGYPTEAAAITELKFIDRPQELKYRVLYIPTFPTFPLVDGFFFVDSPRKTLVGLQMTTASAHHTTASTVRQFTECMAAYFDDWDEFSRDMSWDMIYIQHAASKPMKKRQKCLYVDSNNKTDAEKKIVAFWNGKVHQYQFVLTTDF,not soluble
13,MAHHHHHHMCCTFWGLRLDNTCNNMKSVDIIKCDMCFFSHDGLFLIYTIINKIFVIQVKNLEMYRIYVESYKVDDIKLSSDNIHFLTLIKNKGCVCIYSFYKNNLINKICDYFQTYDHSFFLSKHNNIGIVKYEKKCLTIYNMNNPEKCLINIENIKYQNKGYCSNYINTIFACLVENKKDVNILLLSLFNYTIIKIIKCINFFPNDILFSKSDHIIAYSNKNRSLHIYSIDGDLLHVYKYAEDLGGNTKNVKKKKKKKKKSKFCAWKILKKSSFSFWITHCK,not soluble
14,MAHHHHHHMCDPLVERFISDIIRDPQAWKRAVTSPDNRCCLLPTSNVIRSLAGPLFRRGCVDNVSSLRFLTTLRRDTLSGGNVQRVSMKRKDLRGPWDHRTRVSEEDQPNILIQLLVRQLERNGFGTSYRKAVYSLLGKQVKEMSKKKRQHDAAATAKTMKLNARRIEHLLMEEYNERKKTCDREGRRRQALVRGFFNKASVVVENEEFIGRRTIFQDALDECFAIKTLMEGETQKLTGIPPEHQRNYFAIQQKEKHERECLLARFETQRRAIYLQLQHDIKNSIKSEIRRIMRREKHIEELYKKHGCGK,not soluble
15,MAHHHHHHMCKDKNEKKNYEHVNANEKNGYLASEKNELTKNKVEEHTYDYDYVVIGGGPGGMASAKEAAAHGARVLLFDYVKPSSQGTKWGIGGTCVNVGCVPKKLMHYAGHMGSIFKLDSKAYGWKFDNLKHDWKKLVTTVQSHIRSLNFSYMTGLRSSKVKYINGLAKLKDKNTVSYYLKGDLSKEETVTGKYILIATGCRPHIPDDVEGAKELSITSDDIFSLKKDPGKTLVVGASYVALECSGFLNSLGYDVTVAVRSIVLRGFDQQCAVKVKLYMEEQGVMFKNGILPKKLTKMDDKILVEFSDKTSELYDTVLYAIGRKGDIDGLNLESLNMNVNKSNNKIIADHLSCTNIPSIFAVGDVAENVPELAPVAIKAGEILARRLFKDSDEIMDYSYIPTSIYTPIEYGACGYSEEKAYELYGKSNVEVFLQEFNNLEISAVHRQKHIRAQKDEYDLDVSSTCLAKLVCLKNEDNRVIGFHYVGPNAGEVTQGMALALRLKVKKKDFDNCIGIHPTDAESFMNLFVTISSGLSYAAKGGCGGGKCG,soluble
16,MAHHHHHHMCLLDVDEYKHTDTPEPRGEILLRGPFLFKGYYMQEKLTREALDEDGWFHTGDVGSITTHGRLRIIGRVKALAKNVLGEYIALEALESMYAHNALCMPNGVCVLVHPARSYICALVLTDETKAMMFAKEHGIEGSYPDILRDPAFQRKATESMQATARKADRQKFECVRHVRVVGDEWTPENEILTAAGKLKRREIDKRYADVIQLLFVEEC,not soluble
17,MAHHHHHHMDLIQWPLPYQDELLNFYIFNDSKFVGGQNRWNLFKKKVMHHNIHVISNCYCQISLLRLSQLLNASVDDSESFLSELVSNKILNAKIDRLHGIIKFGQKKTPEVLLNNWSSQIHQILNLLEESSHLIQKERMLHEAKLKRMQLESKNMSL,not soluble
18,MAHHHHHHMDRLAGSFLSNGDVANASSLYNSLEKLNPTRYSRMARICRVLLNPQGVPLPHRHLDICEALLDPLVPPEVLLRDSAENVQKSFQRLAVCAHPDKNPSPSANEAFLRLTMMKDKALELLRNGVGRKCDGATEAPPGKAADSNGGKGKPKMQGSGPAVPTVAHRRRPLRPGVPL,soluble
